Experiment [1] addresses T1, human FOLR1 endogenously expressed on tumor cell lines (human, UniProt P15328 25-234).
T1 construct: whole, on cells; also called FOLR1-positive tumor cell lines; FOLR1+ target cells
The experiment in a line: flow cytometry on IGROV-1 cells, 37 C, one-site fit of MFI, mean. How it is done: (§1) Cells were collected and centrifuged at 400×g, 5 min, 4° C. Cell pellets were resuspended in FACS buffer (PBS (Invitrogen, cat.: 392-0434) containing 2% h.i. FCS (Invitrogen, cat.: 10500-064), and 0.1% sodium azide (Sigma, cat.: S8032)) at 1-5×10⁶ cells/mL. 100 μL/well of the cell suspension were transferred into U-shaped, 96-well micro plates (0.1-0.5×10⁶ cells per well), cells were pelleted at 400×g, 5 min, 4° C., and resuspended in 100 μL/well of serial dilutions of the indicated antibodies in FACS buffer. After 40-50 min incubation at 37° C., cells were washed 3-times with ice-cold FACS buffer. […] After the final incubation step, cells were washed 2-times with ice-cold FACS buffer, and the cell pellet was resuspended in 100 μL FACS buffer. Fluorescence intensities of >1×10⁴ viable cells were analyzed by flow cytometry and the median fluorescence intensity (MFI) was determined for each sample.
(§2) Equilibrium dissociation constants (KD) of antibody binding, mean and standard deviation (SD) were calculated by plotting MFI values and fitting a non-linear regression model for one-site binding to hyperbolic dose-response curves using GraphPad Prism for Windows (v9; GraphPad Software; La Jolla California USA).
(§3) Specific antibody binding capacity (SABC) as a marker for FOLR1 expression level on cells was determined on all tumor cell lines using QIFIKIT.

Experiment [2] deals with T1, human FOLR1 endogenously expressed on …. The experiment in a line: flow cytometry on OVCAR-3 cells, 37 C, one-site fit of MFI, mean. The method, then:
as §1, §2, §3

In experiment [3] the target is T2, cynomolgus CD16 expressed on CHO cells (cAg_36) (cynomolgus, UniProt Q8SPW2 17-254).
T2 construct: whole, on cells; also called cyCD16
The experiment in a line: flow cytometry on cyCD16 CHO cells (cAg_36), one-site fit of MFI, mean. How it is done: (§4) After washing in FACS buffer, cells were incubated in 50 μL FACS buffer without antibodies or with titrated antibodies starting at a concentration of 1000 nM followed by elven 3-fold serial dilutions for 40-50 min on ice in the dark. […] After washing, binding was measured by flow cytometry and mean fluorescence intensities (MFI) of cell samples were calculated and corrected for background staining using control cells stained with secondary antibodies only.
(§5) Equilibrium dissociation constants (KD) of antibody binding were calculated by plotting MFI values and fitting a non-linear regression model for one-site binding to hyperbolic dose-response curves using GraphPad Prism.
(Flow cytometry measures light scatter and fluorescence of single cells or particles in a stream.)

Experiment [4] has as its target T3, human FOLR1 expressed on CHO cells (cAg_125) (human, UniProt P15328 25-234).
T3 construct: whole, on cells; also called huFOLR1
The experiment is described as follows: flow cytometry on huFOLR1 CHO cells (cAg_125), one-site fit of MFI, Exp. 2. How it is done:
(§6) To analyze binding of different antibody constructs to CHO cells transfected with human FOLR1 (cAg_125) and cynomolgus FOLR1 (cAg_126), 1-5×10⁵ were resuspended in 100 μL FACS buffer (PBS (BioWest, cat.: L0615-500) containing 2% heat-inactivated FCS (Invitrogen, cat.: 10500-064), and 0.1% sodium azide (Sigma, cat.: S8032_100G)) in round-bottom 96-well microtiter plates. After washing in FACS buffer, cells were incubated in 50 μL FACS buffer without antibodies or with titrated antibodies starting at a concentration of 1000 nM followed by eleven 3-fold serial dilutions for 40-50 min on ice in the dark. […] After washing, binding was measured by flow cytometry and mean fluorescence intensities (MFI) of cell samples were calculated and corrected for background staining using control cells stained with secondary antibodies only.
(§7) Binding of antibody constructs to huFOLR1-as well as cyFOLR1-transfected CHO cells was measured by flow cytometry. Equilibrium dissociation constants (KD) of antibody binding were calculated by plotting MFI values and fitting a non-linear regression model for one-site binding to hyperbolic dose-response curves using GraphPad Prism.

Experiment [5] deals with T3, human FOLR1 expressed on CHO cells …. The experiment in a line: flow cytometry on huFOLR1 CHO cells (cAg_125), one-site fit of MFI, Exp. 3. The method, then:
as §6, §7

Experiment [6] addresses T4, human CD16A (158V) expressed on CHO cells (cAg_35) (human, UniProt P08637 17-254).
T4 construct: also called huCD16A (158V)
The experiment in a line: flow cytometry on huCD16A (158V) CHO cells (cAg_35), one-site fit of MFI, mean. The method, then: as §4, §5

The target in experiment [7] is T4, human CD16A (158V) expressed on CHO …. The experiment is described as follows: flow cytometry on huCD16A (158V) CHO cells (cAg_35), one-site fit of MFI, Exp. 1. The method, then: as §4, §5
Experiment [8] shares this target. The experiment in a line: flow cytometry on huCD16A (158V) CHO cells (cAg_35), one-site fit of MFI, Exp. 2. How it is done:
as §4, §5

For experiment [9], the target named is T2, cynomolgus CD16 expressed on CHO cells …. The experiment in a line: flow cytometry on cyCD16-transfected CHO cells (cAg_36), on ice, FITC goat anti-human IgG detection. The method, then: as §4
The target of experiment [10] is T3, human FOLR1 expressed on CHO cells …. The experiment is described as follows: flow cytometry on huFOLR1-transfected CHO cells (cAg_125), on ice, FITC goat anti-human IgG detection. How it is done: as §6
The target of experiment [11] is CD16A endogenously expressed on primary human NK cells (human, UniProt P08637 17-254). The experiment is described as follows: flow cytometry on primary human NK cells, biotinylated antibody, 37 C, with 10 mg/mL polyclonal human IgG as competitor, mean of 4. The method, then:
4° C., and resuspended in 50 μL/well of diluted antibody constructs. […] After 40-50 minutes' incubation at 37° C., cells were washed 3-times with ice-cold FACS buffer. […] After the final incubation step, cells were washed 2-times with ice-cold FACS buffer, and the cell pellet was resuspended in 50 μL FACS buffer. Fluorescence intensity of >1×10⁴ viable cells was analyzed by flow cytometry and the median fluorescence intensity (MFI) was determined for each sample.
as §5

T2 sequence (Q8SPW2 17-254): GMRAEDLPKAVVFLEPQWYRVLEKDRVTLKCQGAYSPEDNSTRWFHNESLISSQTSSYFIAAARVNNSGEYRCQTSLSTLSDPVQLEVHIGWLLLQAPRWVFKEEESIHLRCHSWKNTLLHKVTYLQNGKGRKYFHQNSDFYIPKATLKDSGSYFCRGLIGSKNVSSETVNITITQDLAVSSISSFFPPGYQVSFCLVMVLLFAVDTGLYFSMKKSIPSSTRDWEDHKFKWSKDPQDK
T3 sequence (P15328 25-234): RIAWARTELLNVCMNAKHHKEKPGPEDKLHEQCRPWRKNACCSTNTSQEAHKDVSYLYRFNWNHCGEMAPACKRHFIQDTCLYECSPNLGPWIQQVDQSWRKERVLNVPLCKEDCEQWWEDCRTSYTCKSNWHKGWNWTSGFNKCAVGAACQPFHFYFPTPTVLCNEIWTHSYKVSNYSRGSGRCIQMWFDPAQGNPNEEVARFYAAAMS
T4 sequence (P08637 17-254 F176V limits assumed): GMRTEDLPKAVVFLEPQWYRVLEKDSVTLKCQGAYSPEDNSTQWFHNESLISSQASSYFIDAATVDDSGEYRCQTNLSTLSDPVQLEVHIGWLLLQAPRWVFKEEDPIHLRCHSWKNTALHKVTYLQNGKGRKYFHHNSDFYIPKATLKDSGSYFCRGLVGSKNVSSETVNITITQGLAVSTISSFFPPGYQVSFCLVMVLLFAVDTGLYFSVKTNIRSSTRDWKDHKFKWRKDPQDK
T1 sequence (P15328 25-234): as the sequence (P15328 25-234) above
CD16A endogenously expressed on primary human NK cells, sequence (P08637 17-254 limits assumed): as the sequence (P08637 17-254 F176V limits assumed) above, with V160F counted along it

B1: scFv-IgAb_387 (FOLR1_1×CD16a3) (bispecific antibody)
heavy: EVQLVESGGGVVQPGRSLRLSCSASGFTFSGYGLSWVRQAPGKGLEWVAMISSGGSYTYYADSVKGRFAISRDNAKNTLFLQMDSLRPEDTGVYFCARHGDDPAWFAYWGQGTPVTVSSASTKGPSVFPLAPSSKSTSGGTAALGCLVKDYFPEPVTVSWNSGALTSGVHTFPAVLQSSGLYSLSSVVTVPSSSLGTQTYICNVNHKPSNTKVDKKVEPKSCDKTHTCPPCPAPEFEGGPSVFLFPPKPKDTLMISRTPEVTCVVVAVSHEDPEVKFNWYVDGVEVHNAKTKPREEQYNSTYRVVSVLTVLHQDWLNGKEYKCKVSNKALPAPIEKTISKAKGQPREPQVYTLPPSREEMTKNQVSLTCLVKGFYPSDIAVEWESNGQPENNYKTTPPVLDSDGSFFLYSKLTVDKSRWQQGNVFSCSVMHEALHNHYTQKSLSLSPGGGGGSGGGGSGGGGSGGGGSGGGGSGGGGSSYELTQPLSVSVALGQTARITCGGNNIGSKSVHWYQQKPGQAPVLVIYQDKKRPSGIPERFSGSNSGNTATLTISRAQAGDEADYYCQVWDDYIVLFGCGTKLTVLGGSGGSGGSGGSGGSGGSGGSQVQLVQSGAEVKKPGASVKVSCKASGYTFTNYYMQWVRQAPGQCLEWMGIINPSGGVTSYAQKFQGRVTMTRDTSTSTVYMELSSLRSEDTAVYYCARGSAYYYDFADYWGQGTLVTVSSG
light: DIQLTQSPSSLSASVGDRVTITCSVSSSISSNNLHWYQQKPGKAPKPWIYGTSNLASGVPSRFSGSGSGTDYTFTISSLQPEDIATYYCQQWSSYPYMYTFGQGTKVEIKRTVAAPSVFIFPPSDEQLKSGTASVVCLLNNFYPREAKVQWKVDNALQSGNSQESVTEQDSKDSTYSLSSTLTLSKADYEKHKVYACEVTHQGLSSPVTKSFNRGEC
modifications: Chemically biotinylated (NHS-PEG4-biotin) in Example 22 only.
notes: Tetravalent bispecific scFv-IgAb; also called FOLR1×CD16A scFv-IgAb_387; FOLR1/CD16A scFv-IgAb_387; copies: 2 + 2
As to B1, the Kd (usually a measure of binding affinity in units of concentration) is 3.7 nM in [1]; 1.7 nM in experiment [2]; 25.2 nM in experiment [3]; 31.6 nM in experiment [4]; 40.6 nM in [5]; 30.8 nM in [6]. Also, the Kd is 15.8 nM in experiment [7], 29.1 nM in [8] and 23.1 nM in experiment [11]. Besides, the entries for the concentration giving a half-maximal response (EC50 (read off the curve)) in [9] and in [10] were ~30 nM and ~40 nM, respectively.

B2: scFv-IgAb_381 (FOLR1_1×CD16a4) (bispecific antibody)
chain 1: EVQLVESGGGVVQPGRSLRLSCSASGFTFSGYGLSWVRQAPGKGLEWVAMISSGGSYTYYADSVKGRFAISRDNAKNTLFLQMDSLRPEDTGVYFCARHGDDPAWFAYWGQGTPVTVSSASTKGPSVFPLAPSSKSTSGGTAALGCLVKDYFPEPVTVSWNSGALTSGVHTFPAVLQSSGLYSLSSVVTVPSSSLGTQTYICNVNHKPSNTKVDKKVEPKSCDKTHTCPPCPAPEFEGGPSVFLFPPKPKDTLMISRTPEVTCVVVAVSHEDPEVKFNWYVDGVEVHNAKTKPREEQYNSTYRVVSVLTVLHQDWLNGKEYKCKVSNKALPAPIEKTISKAKGQPREPQVYTLPPSREEMTKNQVSLTCLVKGFYPSDIAVEWESNGQPENNYKTTPPVLDSDGSFFLYSKLTVDKSRWQQGNVFSCSVMHEALHNHYTQKSLSLSPGGGGGSGGGGSGGGGSGGGGSGGGGSGGGGSSYELTQPLSVSVALGQTARITCGGHNIGSKNVHWYQQKPGQAPVLVIYQDNKRPSGIPERFSGSNSGNTATLTISRAQAGDEADYYCQVWDNYNVLFGCGTKLTVLGGSGGSGGSGGSGGSGGSGGSQVQLVQSGAEVKKPGASVKVSCKASGYTFTSYYMHWVRQAPGQCLEWMGAIEPTYGSTSYAQKFQGRVTMTRDTSTSTVYMELSSLRSEDTAVYYCARGSAYYYDFADYWGQGTLVTVS
chain 2: DIQLTQSPSSLSASVGDRVTITCSVSSSISSNNLHWYQQKPGKAPKPWIYGTSNLASGVPSRFSGSGSGTDYTFTISSLQPEDIATYYCQQWSSYPYMYTFGQGTKVEIKRTVAAPSVFIFPPSDEQLKSGTASVVCLLNNFYPREAKVQWKVDNALQSGNSQESVTEQDSKDSTYSLSSTLTLSKADYEKHKVYACEVTHQGLSSPVTKSFNRGEC
notes: also called FOLR1×CD16A scFv-IgAb_381
Regarding B2, the dissociation constant Kd in [3] stood at 32.8 nM; in [4], 24.4 nM; in experiment [5], 29.3 nM; in experiment [6], 43 nM; in experiment [7], 22 nM; in experiment [8], 43.3 nM. The EC50 (read off the curve) (usually the concentration that produces a half-maximal response) was ~40 nM in experiment [9] and ~30 nM in experiment [10].

For the origin of these results see patent publication US20240417475A1 (AFFIMED, published 2024).
